According to US20180135012A1:

T1: A2 domain of von Willebrand Factor (vWF-A2, recombinant), P04275
T1 chain: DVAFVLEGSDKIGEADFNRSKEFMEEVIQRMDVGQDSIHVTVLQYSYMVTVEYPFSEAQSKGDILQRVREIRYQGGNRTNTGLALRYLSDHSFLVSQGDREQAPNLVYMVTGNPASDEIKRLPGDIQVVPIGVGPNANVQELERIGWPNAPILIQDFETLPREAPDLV

B1: recombinant ADAMTS13 (protein)
chain: AAGGILHLELLVAVGPDVFQAHQEDTERYVLTNLNIGAELLRDPSLGAQFRVHLVKMVILTEPEGAPNITANLTSSLLSVCGWSQTINPEDDTDPGHADLVLYITRFDLELPDGNRQVRGVTQLGGACSPTWSCLITEDTGFDLGVTIAHEIGHSFGLEHDGAPGSGCGPSGHVMASDGAAPRAGLAWSPCSRRQLLSLLSAGRARCVWDPPRPQPGSAGHPPDAQPGLYYSANEQCRVAFGPKAVACTFAREHLDMCQALSCHTDPLDQSSCSRLLVPLLDGTECGVEKWCSKGRCRSLVELTPIAAVHGRWSSWGPRSPCSRSCGGGVVTRRRQCNNPRPAFGGRACVGADLQAEMCNTQACEKTQLEFMSQQCARTDGQPLRSSPGGASFYHWGAAVPHSQGDALCRHMCRAIGESFIMKRGDSFLDGTRCMPSGPREDGTLSLCVSGSCRTFGCDGRMDSQQVWDRCQVCGGDNSTCSPRKGSFTAGRAREYVTFLTVTPNLTSVYIANHRPLFTHLAVRIGGRYVVAGKMSISPNTTYPSLLEDGRVEYRVALTEDRLPRLEEIRIWGPLQEDADIQVYRRYGEEYGNLTRPDITFTYFQPKPRQAWVWAAVRGPCSVSCGAGLRWVNYSCLDQARKELVETVQCQGSQQPPAWPEACVLEPCPPYWAVGDFGPCSASCGGGLRERPVRCVEAQGSLLKTLPPARCRAGAQQPAVALETCNPQPCPARWEVSEPSSCTSAGGAGLALENETCVPGADGLEAPVTEGPGSVDEKLPAPEPCVGMSCPPGWGHLDATSAGEKAPSPWGSIRTGAQAAHVWTPAAGSCSVSCGRGLMELRFLCMDSALRVPVQEELCGLASKPGSRREVCQAVPCPARWQYKLAACSVSCGRGVVRRILYCARAHGEDDGEEILLDTQCQGLPRPEPQEACSLEPCPPRWKVMSLGPCSASCGLGTARRSVACVQLDQGQDVEVDEAACAALVRPEASVPCLIADCTYRWHVGTWMECSVSCGDGIQRRRDTCLGPQAQAPVPADFCQHLPKPVTVRGCWAGPCVGQGTPSLVPHEEAAAPGRTTATPAGASLEWSQARGLLFSPAPQPRRLLPGPQENSVQSSACGRQHLEPTGTIDMRGPGQADCAVAIGRPLGEVVTLRVLESSLNCSAGDMLLLWGRLTWRKMCRKLLDMTFSSKTNTLVVRQRCGRPGGGVLLRYGSQLAPETFYRECDMQLFGPWGEIVSPSLSPATSNAGGCRLFINVAPHARIAIHALATNMGAGTEGANASYILIRDTHSLRTTAFHGQQVLYWESESSQAEMEFSEGFLKAQASLRGQYWTLQSWVPEMQDPQSWKGKEGT
B2: ADAMTS13 fused to the extracellular domain of GPA, expressed on K562 erythroleukemia cells (protein)
chain: AAGGILHLELLVAVGPDVFQAHQEDTERYVLTNLNIGAELLRDPSLGAQFRVHLVKMVILTEPEGAPNITANLTSSLLSVCGWSQTINPEDDTDPGHADLVLYITRFDLELPDGNRQVRGVTQLGGACSPTWSCLITEDTGFDLGVTIAHEIGHSFGLEHDGAPGSGCGPSGHVMASDGAAPRAGLAWSPCSRRQLLSLLSAGRARCVWDPPRPQPGSAGHPPDAQPGLYYSANEQCRVAFGPKAVACTFAREHLDMCQALSCHTDPLDQSSCSRLLVPLLDGTECGVEKWCSKGRCRSLVELTPIAAVHGRWSSWGPRSPCSRSCGGGVVTRRRQCNNPRPAFGGRACVGADLQAEMCNTQACEKTQLEFMSQQCARTDGQPLRSSPGGASFYHWGAAVPHSQGDALCRHMCRAIGESFIMKRGDSFLDGTRCMPSGPREDGTLSLCVSGSCRTFGCDGRMDSQQVWDRCQVCGGDNSTCSPRKGSFTAGRAREYVTFLTVTPNLTSVYIANHRPLFTHLAVRIGGRYVVAGKMSISPNTTYPSLLEDGRVEYRVALTEDRLPRLEEIRIWGPLQEDADIQVYRRYGEEYGNLTRPDITFTYFQPKPRQAWVWAAVRGPCSVSCGAGLRWVNYSCLDQARKELVETVQCQGSQQPPAWPEACVLEPCPPYWAVGDFGPCSASCGGGLRERPVRCVEAQGSLLKTLPPARCRAGAQQPAVALETCNPQPCPARWEVSEPSSCTSAGGAGLALENETCVPGADGLEAPVTEGPGSVDEKLPAPEPCVGMSCPPGWGHLDATSAGEKAPSPWGSIRTGAQAAHVWTPAAGSCSVSCGRGLMELRFLCMDSALRVPVQEELCGLASKPGSRREVCQAVPCPARWQYKLAACSVSCGRGVVRRILYCARAHGEDDGEEILLDTQCQGLPRPEPQEACSLEPCPPRWKVMSLGPCSASCGLGTARRSVACVQLDQGQDVEVDEAACAALVRPEASVPCLIADCTYRWHVGTWMECSVSCGDGIQRRRDTCLGPQAQAPVPADFCQHLPKPVTVRGCWAGPCVGQGTPSLVPHEEAAAPGRTTATPAGASLEWSQARGLLFSPAPQPRRLLPGPQENSVQSSACGRQHLEPTGTIDMRGPGQADCAVAIGRPLGEVVTLRVLESSLNCSAGDMLLLWGRLTWRKMCRKLLDMTFSSKTNTLVVRQRCGRPGGGVLLRYGSQLAPETFYRECDMQLFGPWGEIVSPSLSPATSNAGGCRLFINVAPHARIAIHALATNMGAGTEGANASYILIRDTHSLRTTAFHGQQVLYWESESSQAEMEFSEGFLKAQASLRGQYWTLQSWVPEMQDPQSWKGKEGTYPYDVPDYALSTTEVAMHTSTSSSVTKSYISSQTNDTHKRDTYAATPRAHEVSEISVRTVYPPEEETGERVQLAHHFSEPEITLIIFGVMAGVIGTILLISYGIRRLIKKSPSDVKPLPSPDTDVPLSSVEIENPETSDQ

Molecular target: T1, A2 domain of von Willebrand Factor …

Row | Protein | enzymatic cleavage of vWF subdomain A2 detected by Western blot
1 | B1 | the cell-expressed ADAMTS13 (lane 4) appears more active than the recombinant ADAMTS13 (lane 2), despite the fact that there is 6× less cell-expressed ADAMTS13 (13ng) than recombinant ADAMTS13 (75 ng) in the assay
2 | B2 | the cell-expressed ADAMTS13 (lane 4) appears more active than the recombinant ADAMTS13 (lane 2), despite the fact that there is 6× less cell-expressed ADAMTS13 (13ng) than recombinant ADAMTS13 (75 ng) in the assay
